According to publication PMC12412097, “Structure and Nitrite Reductase Activity of the Di-iron Protein ScdA in Staphylococcus aureus” (Journal of the American Chemical Society, 2025):

Experiments:
[1] = molecular target: the molecule itself; assay: SEC; Superdex 75 Increase 10/300 GL, 20 mM Tris, 150 mM NaCl, pH 7.6; no reducing agent (WT also with MV radicals); oligomer peak at 9.2 mL, dimer peak at 10.9 mL
[2] = molecular target: the molecule itself; assay: SEC; as a1, protein treated with the reducing agent DTT
crystal structure = molecular target: the molecule itself; assay: crystal structure

B1: ScdA S77E variant (wild-type cysteines) (enzyme)
chain: not shown
notes: also called S77E mutant; not shown: His6, N-terminal, kept
binding result [1]: binds

B2: wild-type (WT) ScdA, S. aureus, N-terminal His6 tag (enzyme)
chain: not shown
notes: also called as-isolated WT; reduced WT; not shown: His6, N-terminal, kept
stoichiometry N [2]: 2

B3: cysteine-free (CF) ScdA variant (C30A/C31A/C191A), N-terminal His6 tag (enzyme)
chain: not shown
notes: also called CF variant; not shown: His6, N-terminal, kept
stoichiometry N [1]: 2

B4: tag-free variant of CF ScdA (tagless ScdA) (enzyme)
chain: not shown
notes: also called CF ScdA (crystal); source: E. coli, purified (Q Sepharose, SEC)
stoichiometry N (crystal structure): 2

B5: CF ScdA S77C (enzyme)
chain: not shown
notes: not shown: His6, N-terminal, kept
stoichiometry N [1]: 2
